Consider seven molecules from US20260207767A1 (ANAVEON, published 2026).

The Kd is the free concentration of one partner at which half of the binding sites on the other are occupied at equilibrium, for simple one-to-one binding. Usually koff stands for the rate constant with which the complex falls apart. As usually defined, the EC50 is the concentration that produces a half-maximal response. A word on the kon: it is the rate constant with which the complex forms. A lower kon goes with slow association.

The target in assay [1] is T1, recombinant hPD-1 (construct not stated) (human, UniProt Q15116 25-167, limits assumed).
T1 construct: also called huPD-1; Human PD1
Kind of assay: BLI, supernatants. From the text: In order to remove an N-glycosylation site present in the CDR-L1, mutations were inserted in the CDR-L1 of 21A08. The first asparagine ([…], N) in CDR-L1, was replaced by a serine (Ser, S), Glutamine (Gln, Q), or Alanine (Ala, A).
(In general: Biolayer interferometry detects binding as a change in optical thickness at a sensor tip.)

For assay [2], the target named is T2, human PD-1 expressed on cells (human, UniProt Q15116 25-288).
T2 construct: whole, on cells; cell line named under assay; also called CHO-S hPD-1; Raji PD-1
The assay is described as follows: flow cytometry, HEK293 huPD1. On the technique in general: In flow cytometry, cells or beads pass a laser one at a time.

In assay [3] the target is T3, cynoPD-1 His (AcroBiosystems PD1-C5223) (cynomolgus monkey, UniProt B0LAJ3 25-170).
T3 construct: also called cPD-1; cynomolgus PD-1 His-tagged
Kind of assay: BLI (legend: SPR), Ab on sensor.

Another assay deals with T4, hPD-1 His-tagged (human, UniProt Q15116 25-167).
T4 construct: also called recombinant hPD-1 (AcroBio)
The assay is described as follows: BLI (legend: SPR), Ab on sensor.

Assay [4] concerns the target T5, cynomolgus PD-1 expressed on cells (cynomolgus monkey, UniProt B0LAJ3 25-288).
T5 construct: also called CHO-S Cyno-PD-1; 293:cyPD1
The assay is described as follows: flow cytometry, HEK293 cyPD1.

Assay [5] deals with T6, recombinant human IL-2 (human, UniProt P60568 21-153).
T6 construct: bought (BLI: Acro Biosystems IL2-H4113); also called rhIL-2; hIL-2
Kind of assay: BLI, antibody immobilized. Here is the method:
(§1) Binding to IL-2 was first tested by ELISA using a serial dilution of antibodies on coated IL-2. Recombinant human IL-2 was coated on Maxisorp ELISA plates (Invitrogen, 44-2404-21) at 5 μg/ml, 4° C. overnight. […] The antibodies were detected with anti-human IgG-Peroxidase (Sigma, A0170). After addition and blockade of the chemiluminescent substrate, absorption was read (A₄₅₀-A₅₇₀ at plate reader, Spectramax 03). EC₅₀ values were obtained by plotting Absorbance vs. log(Concentration) and sigmoidal 4-PL fitting using GraphPad Prism (Table 1). […] Antibodies were immobilized on amine reactive (2nd Generation) sensors (ForteBio, 18-5092). Association (600s) and dissociation (900s) of a dilution series of recombinant IL-2 (Acro Biosystems, IL2-H4113) were measured on the antibody-coated biosensors on an Octet-System (Octet RED, ForteBio). KD values were obtained by fitting the kinetics data with the ForteBio Data Analysis Software (8.2).

The target of assay [6] is T6, recombinant human IL-2. Kind of assay: ELISA, coated IL-2. Here is the method: as §1
On the technique in general: In an ELISA, binding on a coated surface is turned into a signal by an enzyme label.

The target of assay [7] is T7, CD122/CD132 complex (His-tagged, Acro Biosystem ILG-H5283) (UniProt P14784 27-239; P31785 23-254, limits assumed).
T7 construct: bought; also called dimeric IL-2 receptor
T7 sequence (looked up) 1: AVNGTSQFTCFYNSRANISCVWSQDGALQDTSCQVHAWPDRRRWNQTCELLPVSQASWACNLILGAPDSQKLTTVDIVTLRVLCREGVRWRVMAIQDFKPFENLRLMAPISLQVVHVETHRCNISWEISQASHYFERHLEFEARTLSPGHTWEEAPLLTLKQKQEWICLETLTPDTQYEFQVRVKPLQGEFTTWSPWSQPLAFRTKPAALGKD
T7 sequence (looked up) 2: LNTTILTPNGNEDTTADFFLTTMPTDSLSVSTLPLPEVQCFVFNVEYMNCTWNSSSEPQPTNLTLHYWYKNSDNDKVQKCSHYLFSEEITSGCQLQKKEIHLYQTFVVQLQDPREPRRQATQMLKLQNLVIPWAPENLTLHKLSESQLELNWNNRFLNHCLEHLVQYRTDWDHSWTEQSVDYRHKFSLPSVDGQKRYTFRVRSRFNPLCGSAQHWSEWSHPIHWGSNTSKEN
Kind of assay: SPR, CD122/CD132 captured on NTA chip. From the text: Binding to the CD122/CD132 complex (His-tagged, Acro Biosystem, Cat #ILG-H5283) of one representative anti-IL-2 antibody/IL-2 fusion (QTY065) was additionally assessed by SPR (BIAcore 3000, v4.1.2; GE Healthcare) and compared to Proleukin. CD122/CD132 was captured on an NTA sensor chip (GE Healthcare). Proleukin or QTY065 Fab were used as analytes.

The target in assay [8] is T6, recombinant human IL-2. Kind of assay: BLI, antibody immobilized; BLI: antibody immobilized on amine reactive sensors, rhIL-2 in solution as a dilution series. Here is the method:
as §1

T4 sequence (Q15116 25-167 limits assumed): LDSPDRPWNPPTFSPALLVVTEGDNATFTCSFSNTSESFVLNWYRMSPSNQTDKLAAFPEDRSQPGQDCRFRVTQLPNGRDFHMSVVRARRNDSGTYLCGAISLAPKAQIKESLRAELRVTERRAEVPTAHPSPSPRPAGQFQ
T5 sequence (B0LAJ3 entry or part of it limits assumed): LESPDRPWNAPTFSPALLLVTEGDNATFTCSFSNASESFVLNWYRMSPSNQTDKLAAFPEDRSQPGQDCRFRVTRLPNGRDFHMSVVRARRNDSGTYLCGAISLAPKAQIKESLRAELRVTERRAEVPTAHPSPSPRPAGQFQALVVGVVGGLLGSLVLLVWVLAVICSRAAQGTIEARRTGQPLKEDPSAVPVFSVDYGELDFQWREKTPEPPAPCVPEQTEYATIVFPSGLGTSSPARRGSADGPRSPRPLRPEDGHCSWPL
T3 sequence (B0LAJ3 entry or part of it limits assumed): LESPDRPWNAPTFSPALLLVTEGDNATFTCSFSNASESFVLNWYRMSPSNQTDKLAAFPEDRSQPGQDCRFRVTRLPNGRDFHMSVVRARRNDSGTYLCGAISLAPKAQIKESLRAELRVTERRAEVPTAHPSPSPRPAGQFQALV
T2 sequence (Q15116 25-288): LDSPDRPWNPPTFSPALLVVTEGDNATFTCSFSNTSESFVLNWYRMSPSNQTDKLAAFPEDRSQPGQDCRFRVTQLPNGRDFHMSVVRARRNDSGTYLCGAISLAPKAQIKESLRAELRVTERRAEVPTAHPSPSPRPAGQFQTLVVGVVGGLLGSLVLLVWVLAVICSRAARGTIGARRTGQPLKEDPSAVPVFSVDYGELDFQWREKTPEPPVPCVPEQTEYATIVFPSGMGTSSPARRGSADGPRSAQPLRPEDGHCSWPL
T6 sequence (P60568 21-153 limits assumed): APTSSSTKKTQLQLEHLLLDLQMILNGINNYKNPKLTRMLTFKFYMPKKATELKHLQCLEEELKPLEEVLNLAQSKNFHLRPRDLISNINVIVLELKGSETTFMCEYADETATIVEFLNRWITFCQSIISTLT
T1 sequence (Q15116 25-167 limits assumed): as the sequence (Q15116 25-167 limits assumed) above

B1: 21A08 (antibody, V domains shown)
VH: EVQLLESGGGLVQPGGSLRLSCAASGFTFSINAMTWVRQAPGKGLEWVSTISGSGFSTYYADSLKGRFTISRDNSKNTLYLQMNSLRAEDTAVYYCAKEVYGDYWGQGTLVTVSS
VL: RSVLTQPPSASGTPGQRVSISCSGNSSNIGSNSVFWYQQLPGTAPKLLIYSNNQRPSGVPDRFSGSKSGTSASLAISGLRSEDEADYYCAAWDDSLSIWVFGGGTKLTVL
notes: used with CH1,2,3 and CL(lambda); also called clone 21A08
Turning to B1, the Kd was determined as 2.17 nM in [1], 1.24 nM in [3] and 0.00927 nM with hPD-1 His-tagged. Besides, the koff came out at 0.00014 s⁻¹ in assay [1], 8.25e-05 s⁻¹ in assay [3] and 6.39e-07 s⁻¹ with hPD-1 His-tagged. For the same molecule, the figures for the concentration for a half-maximal effect (EC50) in assay [2] and in assay [4] were 0.243 nM and 0.195 nM, respectively. Further, the kon was determined as 66700 M⁻¹ s⁻¹ in assay [3] and 69000 M⁻¹ s⁻¹ in the assay with hPD-1 His-tagged.

B2: 39F23 (antibody, V domains shown)
VH: QVQLVESGGGVGQPGRSLRLSCAASGFTFSNYGMHWVRQAPGKGLEWVAVIWYDGSKKYYADSVKGRFTISRDNSKNTLYLQMNSLRVEDTAVYYCVGNSGHWGQGTLVTVSS
VL: DIVMTQTPLSLPVTPGEPASISCRSSQSLLDSDDGNTYLDWYLQKPGQSPQLLIYTLSYRASGVPDRFSGSGSGTDFTLKISRVEAEDVGVYYCMQCIEFPHTFGGGTKVEIK
notes: used with CH1,2,3 and corresponding CL
In the case of B2, in assay [2], the EC50 is 0.0189 nM. In assay [3], binding was characterised by a dissociation constant (Kd) of 1.3 nM, the koff came to 0.000294 s⁻¹ and the on-rate constant (kon) amounted to 227000 M⁻¹ s⁻¹. For the same molecule, in the assay with hPD-1 His-tagged, binding was characterised by a dissociation constant (Kd) of 1.03 nM, the koff turned out to be 0.000253 s⁻¹ and the kon was 244000 M⁻¹ s⁻¹. In assay [4], this molecule came in with a concentration giving a half-maximal response (EC50) of 0.0289 nM.

B3: 40B20 (antibody, V domains shown)
VH: EVQLVESGGGLVQPGGSLRLSCAASGFTFSSYSMNWVRQAPGKGLQWVSYITSSSNTMYYADSVKGRFTISRDNAKNSLYLQMNSLRDEDTAVYYCASIVGAPFDYWGQGTLVTVSS
VL: EIVMTQSPATLSVSPGERATLSCRASQSVSSSLAWYQQKPGQAPRLLIYGASTRATGIPARFSGSGSGTEFTLTISSLQSEDFAAYYCQQYNNWPFTFGPGTKVDIK
notes: as for B2
In [2], B3 registered an EC50 of 0.162 nM. In assay [3], this molecule yielded a Kd of 7.51 nM, a koff of 0.000505 s⁻¹ and a kon of 67300 M⁻¹ s⁻¹. In the assay with hPD-1 His-tagged, this molecule had a Kd of 9.61 nM, a koff of 0.000773 s⁻¹ and a kon of 80500 M⁻¹ s⁻¹. Also, the EC50 in assay [4] came out at 0.0958 nM.

B4: Antibody A (antibody, human IgG1, kappa, N297A, V domains shown)
VH: EVQLVQSGAEVKKPGESLKISCKGSGYAFTNYLIEWVRQMPGKGLEWMGVINPGSGGTNYNEKFKGQVTISADKSISTAYLQWSSLKASDTAMYYCARWRGEGYYAYFDVWGQGTTVTVSS
VL: AIRLTQSPSSFSASTGDRVTITCKASQSVDYQGDSYMNWYQQKPGKAPKLLIYAASNLESGVPSRFSGSGSGTDFTLTISSLQSEDFATYYCQQSNEDPYTFGGGTKVEIKR
notes: humanized from antibody NARA1
As for B4, the Kd in the assay with recombinant human IL-2 [5] was 2.1 nM. In the assay with recombinant human IL-2 [6], the EC50 came to 0.37 nM.

B5: QTY065 Fab (Fab)
heavy: B4 VH
light: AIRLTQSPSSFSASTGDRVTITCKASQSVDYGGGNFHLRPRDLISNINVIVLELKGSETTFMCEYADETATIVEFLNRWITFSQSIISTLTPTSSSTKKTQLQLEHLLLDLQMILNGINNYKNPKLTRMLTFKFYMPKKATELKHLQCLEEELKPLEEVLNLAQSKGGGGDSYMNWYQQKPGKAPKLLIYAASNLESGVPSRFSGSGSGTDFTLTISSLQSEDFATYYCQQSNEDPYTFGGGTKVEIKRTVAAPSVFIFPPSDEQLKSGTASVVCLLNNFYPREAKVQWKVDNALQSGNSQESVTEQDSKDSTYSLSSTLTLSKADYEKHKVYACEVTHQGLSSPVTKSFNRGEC
notes: also called Fab fragment of QTY065; not shown: CH1
In turn, B5 returned a Kd in assay [7] of 0.32 nM.

B6: 56H02 (antibody, V domains shown)
VH: QVQLVQSGAEVKKPGASVKVSCKASGYTFTSYFMHWVRQAPGQGLEWMGLINPDGGNTDYAQKFQGRVTMTRDTSTSTVYMELSSLRSEDTAVYYCARDGNYYDSSGYYYPDAFDIWGQGTMVTVSS
VL: SSELTQDPAVSVALGQTVRITCQGDSLRRFYASWYQQKPGQAPVIVIYGKDNRPSGTPDRFSGSTSGNTASLTITGAQAEDEADYYCNSRDSSGTHVVFGGGTKLTVL
notes: as for B2
In [2], B6 had an EC50 of 0.0921 nM. In [3], the Kd stood at 0.262 nM, the dissociation rate constant (koff) came to 3.67e-05 s⁻¹ and the kon came out at 140000 M⁻¹ s⁻¹. In the assay with hPD-1 His-tagged, this molecule returned a Kd of 0.228 nM, a koff of 3.79e-05 s⁻¹ and a kon of 166000 M⁻¹ s⁻¹. In assay [4], this molecule yielded an EC50 of 0.0881 nM.

B7: Antibody B (antibody, human IgG1, kappa, V domains shown)
VH: QVQLVESGGGVVQPGRSLRLSCAASGYTFSSYLIEWVRQAPGKGLEWVAVINPGSGGTNYADSVKGRFTISADKSKNTAYLQMNSLRAEDTAVYYCARWRGDGYYAYFDVWGQGTTVTVSS
VL: EIVLTQSPATLSVSPGERATLSCRASQSVSYDGDSYMNWYQQKPGQAPRLLIYAASNLASGIPARFSGSGSGTEFTLTISSLQSEDAAVYYCQQSNEDPYTFGGGTKVEIKR
With B7, the dissociation constant Kd in the assay with recombinant human IL-2 [8] is 270 nM.
